Here are results for nine molecules from US20230242635A1 (published 2023).

Substitutions are numbered along the chain they refer to. Names and notes keep the numbering of the source.

Sequences and labels used below:
B1: caninized anti-NGF antibody ZTS-841 (mAb2 of Table 4), canine IgGA, WT (antibody, from a related filing, part only)
heavy: EVQLVESGGDLVKPGGSLRLSCVASGFTFSSHGMHWVRQSPGKGLQWVAVINSGGSSTYYTDAVKGRFTISRDNAKNTVYLQMNSLRAEDTAMYYCAKESVGGWEQLVGPHFDYWGQGTLVIVSSASTTAPSVFPLAPSCGSTSGSTVALACLVSGYFPEPVTVSWNSGSLTSGVHTFPSVLQSSGLHSLSSMVTVPSSRWPSETFTCNVVHPASNTKVDKPVFNECRCTDTPPCPVPEPLGGPSVLIFPPKPKDILRITRTPEVTCVVLDLGREDPEVQISWFVDGKEVHTAKTQSREQQFNGTYRVVSVLPIEHQDWLTGKEFKCRVNHIDLPSPIERTISKARGRAHKPSVYVLPPSPKELSSSDTVSITCLIKDFYPPDIDVEWQSNGQQEPERKHRMTPPQLDEDGSYFLYSKLSVDKSRWQQGDPFTCAVMHETLQNHYTDLSLSHSPGK
VL: QSVLTQPTSVSGSLGQRVTISCSGSTNNIGILGASWYQLFPGKAPKLLVYGNGNRPSGVPDRFSGADSGDSVTLTITGLQAEDEADYYCQSFDTTLGAHVFGGGTHLTVL
B2: caninized anti-IL31 antibody 34D03 (mAb1), canine IgGB, N434M (antibody)
chain 1: EVQLVESGGDLVKPGGSLRLSCVASGFTFSNYGMSWVRQAPGKGLQWVATISYGGSYTYYPDNIKGRFTISRDNAKNTLYLQMNSLRAEDTAMYYCVRGYGYDTMDYWGQGTLVTVSSASTTAPSVFPLAPSCGSTSGSTVALACLVSGYFPEPVTVSWNSGSLTSGVHTFPSVLQSSGLYSLSSMVTVPSSRWPSETFTCNVAHPASKTKVDKPVPKRENGRVPRPPDCPKCPAPEMLGGPSVFIFPPKPKDTLLIARTPEVTCVVVDLDPEDPEVQISWFVDGKQMQTAKTQPREEQFNGTYRVVSVLPIGHQDWLKGKQFTCKVNNKALPSPIERTISKARGQAHQPSVYVLPPSREELSKNTVSLTCLIKDFFPPDIDVEWQSNGQQEPESKYRTTPPQLDEDGSYFLYSKLSVDKSRWQRGDTFICAVMHEALHMHYTQESLSHSPGK
chain 2: EIVMTQSPASLSLSQEEKVTITCKASQSVSFAGTGLMHWYQQKPGQAPKLLIYRASNLEAGVPSRFSGSGSGTDFSFTISSLEPEDVAVYYCQQSREYPWTFGQGTKLEIK
B3: caninized anti-IL31 antibody 34D03 (mAb1), canine IgGB, N434S (antibody)
chain 1: B2 chain 1 with M440S
chain 2: B2 chain 2
B4: caninized anti-IL31 antibody 34D03 (mAb1), canine IgGB, N434Q (antibody)
chain 1: B2 chain 1 with M440Q
chain 2: B2 chain 2
B5: caninized anti-IL31 antibody 34D03 (mAb1), canine IgGB, N434V (antibody)
chain 1: B2 chain 1 with M440V
chain 2: B2 chain 2
B6: caninized anti-IL31 antibody 34D03 (mAb1), canine IgGB, N434W (antibody)
chain 1: B2 chain 1 with M440W
chain 2: B2 chain 2
B7: caninized anti-IL31 antibody 34D03 (mAb1), canine IgGB, N434T (antibody)
chain 1: B2 chain 1 with M440T
chain 2: B2 chain 2
B8: caninized anti-IL31 antibody (mAb1), canine IgGB, N434Y (antibody)
chain 1: B2 chain 1 with M440Y
chain 2: B2 chain 2
B9: caninized anti-IL31 antibody 34D03 (mAb1), canine IgGB, N434R (antibody)
chain 1: B2 chain 1 with M440R
chain 2: B2 chain 2

The first experiment addresses canine FcRn complex (FcRn-α subunit and β-microglobulin), biotin labeled by BirA, captured on SA chip (Example 5) (canine). The experiment is described as follows: SPR (Biacore), biotinylated FcRn captured on SA chip, IgG flowed, pH 6, 15 C.
B1 showed a Kd of 95.5 nM.

The target in a further experiment is T1, canine FcRn complex (FcRn-α subunit and β-microglobulin), biotin labeled by BirA, captured on SA chip … (canine, UniProt A0A8I3PFR8 25-296, biotin label by BirA enzymatic biotinylation (BAP tag)). The experiment is described as follows: SPR (Biacore), biotinylated FcRn captured on SA chip, IgG flowed, pH 7.4, 15 C.
T1 sequence (A0A8I3PFR8 entry or part of it, one chain of several): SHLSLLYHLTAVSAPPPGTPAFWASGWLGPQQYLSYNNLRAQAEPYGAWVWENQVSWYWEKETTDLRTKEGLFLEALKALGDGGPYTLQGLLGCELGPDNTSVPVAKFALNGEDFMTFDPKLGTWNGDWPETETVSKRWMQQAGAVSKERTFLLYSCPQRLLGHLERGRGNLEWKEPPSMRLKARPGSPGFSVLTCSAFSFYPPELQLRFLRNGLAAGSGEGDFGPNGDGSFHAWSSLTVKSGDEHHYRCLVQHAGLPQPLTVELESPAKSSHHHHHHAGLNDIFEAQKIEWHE
Molecule B2 showed a Kd of 146000 nM.
Regarding B3, the dissociation constant Kd worked out at 6960 nM.
Same read-out and setting: the result for B4 reads 21.8 nM; that for B5, 2750 nM; that for B6, 25300 nM.
The same measure, in the same setting: the result for B7 reads 554 nM.
Still for that read-out and setting: the value for B8 was 1900 nM; that for B9 was 3.11 nM.

For a further experiment, the target named is T1, canine FcRn complex (FcRn-α subunit and …). The experiment is described as follows: SPR (Biacore), biotinylated FcRn captured on SA chip, IgG flowed, pH 6, 15 C.
As to B2, binding was put at a Kd of 14.2 nM.
Still for that read-out and setting: the result for B3 reads 20.2 nM.
Same read-out and setting: the result for B4 reads 5.91 nM; that for B5, 6.16 nM.
The same measure, in the same setting: the result for B6 reads 1.98 nM; that for B7, 34.2 nM.
B8: the Kd was found to be 2.71 nM.
For B9, the dissociation constant (Kd) was found to be 0.906 nM.
